Experimental data: patent publication US20200353030A1 (BAR ILAN UNIVERSITY, published 2020)

B1: hRobo2 receptor ectodomain D4-D5 N426M (residues 311-509 of human Robo2) (receptor)
chain: RAPPQFVVRPRDQIVAQGRTVTFPCETKGNPQPAVFWQKEGSQNLLFPNQPQQPNSRCSVSPTGDLTITNIQRSDAGYYICQALTVAGSILAKAQLEVTDVLTDRPPPIILQGPAMQTLAVDGTALLKCKATGDPLPVISWLKEGFTFPGRDPRATIQEQGTLQIKNLRISDTGTYTCVATSSSGETSWSAVLDVTESG
modifications: additional 655 Da glycosylation found by mass spectroscopy (site not stated)
notes: also called WT hRobo2 D4-5; hRobo2 D4-D5 fragment; not shown: N-terminal FLAG tag of the modified pFastBac (pK503-9) vector; C-terminal hexahistidine tag
B2: Fab antibody fragment AbD32836.1 (Fab, V domains shown)
VH: EVQLVESGGGLVKPGGSLRLSCAASGFTFSSYALSWVRQAPGKGLEWVGHIKSKTDGGATEYAAPVKGRFTISRDDSKNTLYLQMNSLKTEDTAVYYCARSYSEYIPLYAFAVWGQGTLVTVSS
VL: DIVLTQPPSVSGAPGQRVTISCSGSSSNIGSKYVSWYQQLPGTAPKLLIYYTSQRPSGVPDRFSGSKSGTSASLAITGLQAEDEADYYCYAWDSTSTSTVFGGGTKLTVLG
notes: HuCAL phage display Fab from BioRad AbD Serotec, raised against hRobo2 D4-5; also called Fab AbD32836.1; Fab #AbD32836.1

Assays:
[1] = molecular target: hRobo2 receptor ectodomain D4-D5 F357R mutant (human) (UniProt Q9HCK4); assay: sedimentation equilibrium analytical ultracentrifugation, self-association; total molecular weight of the monomer in the same row 24686 Da; the KD column of this row prints 'monomer'
[2] = molecular target: hRobo2 receptor ectodomain D4-D5 L394R mutant (human) (UniProt Q9HCK4); assay: sedimentation equilibrium analytical ultracentrifugation, self-association; total molecular weight of the monomer in the same row 24720 Da; the KD column of this row prints 'monomer'
[3] = molecular target: Robo2 of mouse dorsal root ganglion explants (mouse) (UniProt Q7TPD3); assay: cell-based or functional assay
[4] = molecular target: the molecule itself; assay: SE-AUC, monomer-dimer fit, homodimerization in solution (10, 20 and 30 µM)
Procedure: All the sedimentation equilibrium experiments with hRobo2 receptor ectodomain D4-D5 constructs were performed using an XL-I analytical ultracentrifuge (Beckman-Coulter Inc.), with a UV-visible optics detection system, using an An60Ti rotor and 12-mm double sector centerpieces. Sedimentation curves were recorded and analyzed at 280 nm while spinning at 20° C. at 20,000 rpm in 10, 12, 14, and 20 hour time points, to assure that equilibrium was reached. Three concentrations (10, 20, and 30 μM) of WT hRobo2 receptor ectodomain D4-D5 (N426M) were measured. The F357R and L394R mutants were measured and analyzed in 20 μM. The molecular weight of WT hRobo2 receptor ectodomain D4-D5 fragment (N426M) was determined by mass spectroscopy using the Orbitrap Fusion Lumos with electron transfer dissociation (ETD), with both instrument and chromatography set up especially for the analysis of intact proteins. The recombinant protein includes an N′ terminal FLAG and C′ terminal 6XHis tags. […] The sedimentation coefficient distributions were calculated using SEDFIT and SEDPHAT (Gabrielson et al., 2007; Schuck et al., 2014).
The oligomeric state of hRobo2 receptor ectodomain D4-D5 in solution was determined by sedimentation equilibrium analytical ultracentrifugation (SE-AUC) (FIGS. 8A-8C). […]

[5] = molecular target: B1; assay: apparent KD; ELISA binding assay, method of the fit not stated

Sequence of Robo2 of mouse dorsal root ganglion explants (mouse) (Q7TPD3 22-1470): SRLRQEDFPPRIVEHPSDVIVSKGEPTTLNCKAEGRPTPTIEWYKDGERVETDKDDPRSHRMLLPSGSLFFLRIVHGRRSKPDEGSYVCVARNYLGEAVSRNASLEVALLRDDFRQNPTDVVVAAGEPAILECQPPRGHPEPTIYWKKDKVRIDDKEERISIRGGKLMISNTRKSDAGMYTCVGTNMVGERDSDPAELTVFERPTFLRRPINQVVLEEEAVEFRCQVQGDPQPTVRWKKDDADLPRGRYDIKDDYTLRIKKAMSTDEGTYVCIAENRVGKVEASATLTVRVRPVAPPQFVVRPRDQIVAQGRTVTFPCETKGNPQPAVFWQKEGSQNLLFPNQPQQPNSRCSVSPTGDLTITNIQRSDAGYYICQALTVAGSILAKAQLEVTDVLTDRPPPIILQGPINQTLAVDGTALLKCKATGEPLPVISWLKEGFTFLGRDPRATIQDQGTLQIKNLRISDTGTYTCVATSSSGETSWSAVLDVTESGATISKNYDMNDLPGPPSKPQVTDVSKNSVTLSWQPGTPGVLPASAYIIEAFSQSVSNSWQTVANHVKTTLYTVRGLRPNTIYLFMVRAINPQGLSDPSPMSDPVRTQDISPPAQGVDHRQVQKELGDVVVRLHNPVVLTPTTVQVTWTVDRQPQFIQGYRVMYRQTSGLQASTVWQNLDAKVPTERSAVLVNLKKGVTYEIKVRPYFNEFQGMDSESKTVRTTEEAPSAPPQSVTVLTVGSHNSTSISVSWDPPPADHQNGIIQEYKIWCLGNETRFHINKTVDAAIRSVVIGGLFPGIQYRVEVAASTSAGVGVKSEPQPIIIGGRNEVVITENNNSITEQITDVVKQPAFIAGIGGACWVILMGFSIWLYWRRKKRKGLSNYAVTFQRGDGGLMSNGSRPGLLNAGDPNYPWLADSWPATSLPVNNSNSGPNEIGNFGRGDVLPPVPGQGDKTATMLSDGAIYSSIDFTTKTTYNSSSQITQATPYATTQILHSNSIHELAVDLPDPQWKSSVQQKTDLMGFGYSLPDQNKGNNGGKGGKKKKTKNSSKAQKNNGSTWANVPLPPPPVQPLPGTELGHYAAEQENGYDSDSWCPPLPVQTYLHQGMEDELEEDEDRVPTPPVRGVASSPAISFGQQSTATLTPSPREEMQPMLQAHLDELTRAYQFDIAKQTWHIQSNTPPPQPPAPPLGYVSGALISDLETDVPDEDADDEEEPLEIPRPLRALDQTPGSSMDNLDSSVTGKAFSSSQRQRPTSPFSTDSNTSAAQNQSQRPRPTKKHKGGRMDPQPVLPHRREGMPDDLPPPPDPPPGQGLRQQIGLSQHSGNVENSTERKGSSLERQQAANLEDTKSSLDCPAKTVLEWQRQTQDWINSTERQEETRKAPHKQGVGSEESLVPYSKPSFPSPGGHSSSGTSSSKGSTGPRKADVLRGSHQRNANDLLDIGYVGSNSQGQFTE

Molecule: hRobo2 receptor ectodomain D4-D5 F357R mutant (from UniProt Q9HCK4 311-509)
- global distribution (Da) sedimentation equilibrium [1]: 24100 Da

Molecule: hRobo2 receptor ectodomain D4-D5 L394R mutant (from UniProt Q9HCK4 311-509)
- global distribution (Da) sedimentation equilibrium [2]: 24700 Da

Molecule: hSlitN2 (from UniProt O94813 31-1121) (ligand)
- growth cone collapse of DRG explants 10 min after 5 nM SlitN2, without Fab [3]: 60%

Molecule: B1
- Kd [4]: 16.9 µM

Molecule: B2
- Kd [5]: 0.18 µM
